The target in test [1] is T1, IL13Rα2 expressed on tumor cells (U87, U373, U251) (UniProt Q14627 27-380, limits assumed).
T1 sequence (looked up): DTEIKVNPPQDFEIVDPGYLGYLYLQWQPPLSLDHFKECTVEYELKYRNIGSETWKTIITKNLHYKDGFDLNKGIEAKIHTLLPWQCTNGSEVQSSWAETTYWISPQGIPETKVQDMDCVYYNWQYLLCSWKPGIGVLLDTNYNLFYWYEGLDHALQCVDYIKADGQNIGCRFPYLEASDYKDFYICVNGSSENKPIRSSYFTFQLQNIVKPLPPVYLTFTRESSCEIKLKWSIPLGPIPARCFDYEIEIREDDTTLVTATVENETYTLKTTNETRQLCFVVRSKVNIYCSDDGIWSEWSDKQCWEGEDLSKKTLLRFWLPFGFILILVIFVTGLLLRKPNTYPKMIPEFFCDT
The experiment in a line: cell-based or functional assay.

Test [2] concerns the target T2, recombinant CD3 protein (Acrobiosystems) (UniProt P07766 23-126).
T2 chain: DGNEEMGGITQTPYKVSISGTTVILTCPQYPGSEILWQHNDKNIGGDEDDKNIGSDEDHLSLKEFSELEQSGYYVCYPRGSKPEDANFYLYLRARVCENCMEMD
The experiment in a line: ELISA. Background: An ELISA detects its analyte on a solid surface through an enzyme-linked reagent.

For test [3], the target named is T3, IL13Rα1 expressed on tumor cells (UniProt P78552 22-427, limits assumed).
T3 construct: whole, on cells
T3 sequence (looked up): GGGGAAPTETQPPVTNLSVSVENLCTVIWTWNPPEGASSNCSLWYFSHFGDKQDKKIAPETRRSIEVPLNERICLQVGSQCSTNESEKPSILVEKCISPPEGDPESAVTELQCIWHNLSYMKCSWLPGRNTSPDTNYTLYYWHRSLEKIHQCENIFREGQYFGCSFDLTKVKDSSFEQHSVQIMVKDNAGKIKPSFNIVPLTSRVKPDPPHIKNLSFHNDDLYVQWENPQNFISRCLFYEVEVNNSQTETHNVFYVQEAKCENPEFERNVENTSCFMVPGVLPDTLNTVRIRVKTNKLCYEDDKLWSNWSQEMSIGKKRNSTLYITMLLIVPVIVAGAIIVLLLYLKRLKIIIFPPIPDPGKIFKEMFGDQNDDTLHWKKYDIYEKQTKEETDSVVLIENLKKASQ
The experiment in a line: binding to tumor cells (method not given).

The target in test [4] is T4, recombinant IL13Rα1 (Sino biological) (UniProt P78552 22-343, limits assumed).
T4 construct: Bought protein; construct not described
T4 sequence (looked up): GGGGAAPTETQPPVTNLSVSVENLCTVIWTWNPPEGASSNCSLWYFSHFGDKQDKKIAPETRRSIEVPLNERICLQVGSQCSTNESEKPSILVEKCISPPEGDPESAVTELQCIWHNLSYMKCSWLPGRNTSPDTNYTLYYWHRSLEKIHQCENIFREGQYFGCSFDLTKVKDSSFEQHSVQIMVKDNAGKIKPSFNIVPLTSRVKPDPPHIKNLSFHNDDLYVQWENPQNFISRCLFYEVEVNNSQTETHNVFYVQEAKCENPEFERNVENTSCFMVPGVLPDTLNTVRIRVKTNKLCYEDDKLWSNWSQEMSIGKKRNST
The experiment in a line: binding ELISA, plate coated with IL13Rα1, Expi293F supernatant. Here is the method:
(§1) ELISA plates were coated with either IL13Rα2/IL13Rα1 (Sino biological, […]) or CD3 (Acrobiosystems, 1 μg/ml) overnight at 4C. Blocking was performed with PBST-10% FBS for 1 hour. As primary antibody, supernatants from Expi293F cells transfected with dBTEs was used or pVax as negative control at different dilutions. The cells were incubated at room temperature for 1 hour. Secondary antibody was a goat anti-human fab fragment specific HRP conjugated (Jackson immunoresearch). After 1 hour incubation the blots were developed with TMB solution and read OD at 450 nm. To determine binding kinetics, recombinant BTEs were used at indicated concentrations as primary antibody, and HRP conjugated anti-His tag antibody (Biolegend) or goat anti-mouse fab fragment specific antibody as secondary antibody.

For test [5], the target named is T5, recombinant IL13Rα2 (Sino biological) (UniProt Q14627 27-343, limits assumed).
T5 construct: Bought protein; construct not described
T5 sequence (looked up): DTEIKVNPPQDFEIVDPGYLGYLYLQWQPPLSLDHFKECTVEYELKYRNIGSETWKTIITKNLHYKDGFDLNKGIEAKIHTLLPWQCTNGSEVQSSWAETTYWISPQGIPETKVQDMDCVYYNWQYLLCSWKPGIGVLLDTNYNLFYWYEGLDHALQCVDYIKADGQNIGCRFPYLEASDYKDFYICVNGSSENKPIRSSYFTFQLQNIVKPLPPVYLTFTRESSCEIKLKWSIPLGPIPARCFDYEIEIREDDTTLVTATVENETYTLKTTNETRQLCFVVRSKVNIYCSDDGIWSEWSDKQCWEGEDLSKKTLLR
The experiment in a line: binding ELISA, recombinant purified BTE on coated recombinant IL13Rα2. As to the method:
as §1

Test [6] addresses T6, recombinant IL13Rα2 (Sino biological) (UniProt Q14627 27-343).
T6 chain: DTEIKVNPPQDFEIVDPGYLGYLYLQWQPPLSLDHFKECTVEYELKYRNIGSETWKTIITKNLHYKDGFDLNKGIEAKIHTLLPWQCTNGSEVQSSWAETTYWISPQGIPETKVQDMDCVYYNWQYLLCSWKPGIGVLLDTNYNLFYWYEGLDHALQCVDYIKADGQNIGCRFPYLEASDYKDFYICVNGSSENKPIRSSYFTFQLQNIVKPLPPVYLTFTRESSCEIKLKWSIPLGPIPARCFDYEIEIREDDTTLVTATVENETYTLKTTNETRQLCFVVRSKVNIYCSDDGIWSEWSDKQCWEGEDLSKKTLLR
The experiment in a line: ELISA.

B1: PB02-forward (bispecific antibody)
chain: DIQMTQSPSSLSASVGDRVTITCKASQDVGTAVAWYQQKPGKAPKLLIYSASYRSTGVPSRFSGSGSGTDFTLTISSLQPEDFATYYCQHHYSAPWTFGGGTKVEIKGGGGSGGGGSGGGGSEVQLVESGGGLVQPGGSLRLSCAASGFTFSRNGMSWVRQAPGKGLEWVATVSSGGSYIYYADSVKGRFTISRDNAKNSLYLQMNSLRAEDTAVYYCARQGTTALATRFFDVWGQGTLVTVSSGGGGSEVQLVESGGGLVQPGGSLRLSCAASGYSFTGYTMNWVRQAPGKGLEWVALINPYKGVSTYNQKFKDRFTISVDKSKNTAYLQMNSLRAEDTAVYYCARSGYYGDSDWYFDVWGQGTLVTVSSGGGGSGGGGSGGGGSDIQMTQSPSSLSASVGDRVTITCRASQDIRNYLNWYQQKPGKAPKLLIYYTSRLESGVPSRFSGSGSGTDYTLTISSLQPEDFATYYCQQGNTLPWTFGQGTKVEIKS
notes: Single-chain bispecific T cell engager, VL-VH-VH-VL format: second humanized anti-IL13Rα2 clone fused by GS linker to a modified UCHT1 anti-CD3 scFv; Tested as Expi293F supernatant and as a recombinant purified version; also called PB08-2134
Usually IC50 stands for the concentration that gives 50% inhibition. Regarding B1, the “EC50 of killing of U87-GFP-Luc cells, 48h luciferase killing assay with recombinant BTE and primary human T cells” value (shortened to “EC50 of killing of U87-GFP-Luc cells”) in test [1] is roughly 0.1 ng/mL. Also, the IC50 was 11.2 ng/mL in test [2] and 4.2 ng/mL in test [5]. The binding result in test [3] and in test [4] was “no binding” throughout.

B2: PB02-reverse (bispecific antibody)
chain: EVQLVESGGGLVQPGGSLRLSCAASGFTFSRNGMSWVRQAPGKGLEWVATVSSGGSYIYYADSVKGRFTISRDNAKNSLYLQMNSLRAEDTAVYYCARQGTTALATRFFDVWGQGTLVTVSSGGGGSGGGGSGGGGSDIQMTQSPSSLSASVGDRVTITCKASQDVGTAVAWYQQKPGKAPKLLIYSASYRSTGVPSRFSGSGSGTDFTLTISSLQPEDFATYYCQHHYSAPWTFGGGTKVEIKGGGGSDIQMTQSPSSLSASVGDRVTITCRASQDIRNYLNWYQQKPGKAPKLLIYYTSRLESGVPSRFSGSGSGTDYTLTISSLQPEDFATYYCQQGNTLPWTFGQGTKVEIKSGGGGSGGGGSGGGGSEVQLVESGGGLVQPGGSLRLSCAASGYSFTGYTMNWVRQAPGKGLEWVALINPYKGVSTYNQKFKDRFTISVDKSKNTAYLQMNSLRAEDTAVYYCARSGYYGDSDWYFDVWGQGTLVTVSS
notes: Single-chain bispecific T cell engager, VH-VL-VL-VH format: second humanized anti-IL13Rα2 clone fused by GS linker to a modified UCHT1 anti-CD3 scFv; Tested as Expi293F supernatant and as a recombinant purified version; also called PB08-1243
For B2, the “EC50 of killing of U87-GFP-Luc cells” value in test [1] was roughly 0.1 ng/mL. The IC50 in test [6] was 9.3 ng/mL; in test [2] it was 0.41 ng/mL. For the same molecule, the binding result in test [3] and in test [4] was “no binding” throughout.

B3: PB01-reverse (bispecific antibody)
chain: EVQLVESGGGLVQPGGSLRLSCAASGFSLTKYGVHWVRQAPGKGLEWVGVKWAGGSTDYNSALMSRFTISKDNAKNSLYLQMNSLRAEDTAVYYCARDHRDAMDYWGQGTLVTVSSGGGGSGGGGSGGGGSDIQMTQSPSSLSASVGDRVTITCTASLSVSSTYLHWYQQKPGSSPKLWIYSTSNLASGVPSRFSGSGSGTSYTLTISSLQPEDFATYYCHQYHRSPLTFGGGTKVEIKGGGGSDIQMTQSPSSLSASVGDRVTITCRASQDIRNYLNWYQQKPGKAPKLLIYYTSRLESGVPSRFSGSGSGTDYTLTISSLQPEDFATYYCQQGNTLPWTFGQGTKVEIKSGGGGSGGGGSGGGGSEVQLVESGGGLVQPGGSLRLSCAASGYSFTGYTMNWVRQAPGKGLEWVALINPYKGVSTYNQKFKDRFTISVDKSKNTAYLQMNSLRAEDTAVYYCARSGYYGDSDWYFDVWGQGTLVTVSS
For the molecule B3, in test [1], the “EC50 of killing of U87-GFP-Luc cells” value was roughly 0.1 ng/mL.

B4: PB01-forward (bispecific antibody)
chain: DIQMTQSPSSLSASVGDRVTITCTASLSVSSTYLHWYQQKPGSSPKLWIYSTSNLASGVPSRFSGSGSGTSYTLTISSLQPEDFATYYCHQYHRSPLTFGGGTKVEIKGGGGSGGGGSGGGGSEVQLVESGGGLVQPGGSLRLSCAASGFSLTKYGVHWVRQAPGKGLEWVGVKWAGGSTDYNSALMSRFTISKDNAKNSLYLQMNSLRAEDTAVYYCARDHRDAMDYWGQGTLVTVSSGGGGSEVQLVESGGGLVQPGGSLRLSCAASGYSFTGYTMNWVRQAPGKGLEWVALINPYKGVSTYNQKFKDRFTISVDKSKNTAYLQMNSLRAEDTAVYYCARSGYYGDSDWYFDVWGQGTLVTVSSGGGGSGGGGSGGGGSDIQMTQSPSSLSASVGDRVTITCRASQDIRNYLNWYQQKPGKAPKLLIYYTSRLESGVPSRFSGSGSGTDYTLTISSLQPEDFATYYCQQGNTLPWTFGQGTKVEIKS
notes: Single-chain bispecific T cell engager, VL-VH-VH-VL format: humanized anti-IL13Rα2 scFv fused by GS linker to a modified UCHT1 anti-CD3 scFv; Tested as Expi293F transfection supernatant and as a recombinant purified version, detected with anti-His tag antibody; also called PB07-2134
Turning to B4, the “EC50 of killing of U87-GFP-Luc cells” value in test [1] was roughly 0.1 ng/mL. Besides, in test [5], the IC50 was determined as 21.2 ng/mL.
